According to the DeepSol protein solubility set:

Experiment: soluble on expression in E. coli; label from the status in PepcDB or PDB records
With “AIASVAFVPDWLRGKAEVNQETIQRLLEENDQLIRCIVEYQNKGRGNECVQYQHVLHRNLIYLATIADASPTSTSKAME” the “soluble on expression in E. coli” value was “soluble”.
With “MGSDKIHHHHHHMDDLLLELARQYRNRYYGKYRGFVTDNDDPEQRGRLRLMVPSVLGETPTGWALPSLPFGGLADQGLFMVPEVDAQVWVEFEAGNVNLPIWTGTFWQASGDPPAEAAKSPPTTRVLKTPSGHILQFDDESGAEKFRLAHPAGTEMTVDEKGTVIVADAKGNTLTLDADAGKVVVEDSNGNTITMSSSGTTIEDANGNKVEMAASGVTVKGQQVVVDAQTVMLAGQGGEPIIKGQSFLTLFATHVHPSAMGPTGPPIPQGEMSTLSMKVMTS” the “soluble on expression in E. coli” value was “not soluble”.
In the case of “MKKAVVVFSGGQDSTTCLVQALKEFDEVHAITFDYGQRHKLEIEVAQKIAKDLGVKAHKVMDVGLLNELAISSLTRDDIPVSHELQENGLPNSFVPGRNILFLTLAGIYAYQIGADTVITGVCETDFSGYPDCRDDFVKSMNTALVKGMDRALTIKTPLMWLNKAETWALADQYNALQLVRENTLTCYNGIIGDGCGDCPSCDLRKAGLDEYLNNKDAVMKSLVQKQESEGL”, the “soluble on expression in E. coli” value is reported as “not soluble”.
In the case of “MSLRTILVTGASGFVGGALCRQLATLGSFAIRAASRDLGGASVAGIQAVTVADLSATTDWARALSGVDLVVHAAARVHVMKETASDSLAEFRRVNVDGTLNLARQAAAAGVRRFIFISSIKVNGESSQPGQPLRADDSPAPQDAYGVSKHEAEQGLRQLAAATGMEVVVIRPVLVYGPGVKANFHSMMRWLQRGVPLPFGAVCNRRSLVSLANLVDLVVTCIDHPRAANQTFLASDGDDVSLTQLLRALGLALGRPARLLPVPAGLLRGAVLLIGRRDLAQRLFGTLQVDIEKNRQLLGWYPPCTLEQGLNMTARSFLGARREGHHHHHH”, the “soluble on expression in E. coli” value is reported as “soluble”.
For “MKILKKIFQVIVKIINHCVPVDSRSLYFIPHPNCRTDKYDIINYSSDNVLVLLNYLLKKDSAEYYKIYVEIYDSSRISEYQEYIYGINPNIRCTFLCACVGRFFFNKVSFKDMLYAFFCFCRASKCFTATFYYDFSFKKRSQQIICLGYYTPFKDDYHMGDHSYDKFRNTTCNSFDYSIATSCLSARIISIDCGISYDKFKVLGFPRNDLLISKNNCNVIKREISKFAGYDVTKYIVYTPTFRDYETVTEGNLRSILGYVDCDLLKLSKILLKFNAALILKLHPLQNKTVLKKDLPKGILVFEQTYKYGLYDLLSFSDGMITDYTSTYFDFLLVNKPVIFNFYDIEEYRRVRGFSFEPIEFFCAGDIVYNYNELIDAVMGLLAGKDIHAEHRRHISLLMNQFQDDNSTKRICDIFLNEILEHHHHHH”, the “soluble on expression in E. coli” value was “not soluble”.
In the case of “MSLQRFKFLMYQVVASDLDGTLLSPDHTLSPYAKETLKLLTARGINFVFATGRHHVDVGQIRDNLEIKSYMITSNGARVHDLDGNLIFAHNLDRDIASDLFGVVNDNPEIITNVYRDDEWFMNRHRPEEMRFFKEAVFNYALYEPGLLEPEGVSKVFFTCDSHEKLLPLEQAINARWGDRVNVSFSTLTCLEVMAGGVSKGHALEAVAKKLGYSLQDCIAFGDGMNDAEMLSMAGKGCIMGSAHQRLKDLHPELEVIGTNAEDAVPHYLRKLYLSEGHHHHHH”, the “soluble on expression in E. coli” value is reported as “soluble”.
For “MAHHHHHHMSYYDKSDKIGYDDTDKELNEELEEMLARTPPHIQRHLQHRIHDGILQRMKEDTARRCWEFIKKYETCVNSVKPYDLTDCRPHRDALNDCAHEVNREQIYQKYRMMYLRGELLRLHESRLGQKMETMKVRAPDSIRGWKPDYAPKYAEMMSDIGLNLGPEAADERKLS”, the “soluble on expression in E. coli” value was “not soluble”.
For “GAACNVLFINSVEMESLTGPQAISKAVAETLVADPTPTATIVHFKVSAQGITLTDNQRKLFFRRHYPLNTVTFCDLDPQERKWTKTDGSGPAKLFGFVARKQGSTTDNVCHLFAELDPDQPAAAIVNFVSRVML”, the “soluble on expression in E. coli” value was “soluble”.
With “MSRGYYRTEEEIVQDKVLHRDPGIIEENYASKPPSRRSSSNTNPDSLVNQKHAQPLPSPLHSPVKSVTGSSKNQSPKMAPVRSNSRGSSASSEEDIGTRSFSISVLKDSGTKVEIMLKAHGLRKKKGFINSLVTVFKKPSQPSRLLSNGKFTEFVLTEHALRFLLEVKTDKKKKKGNGNRLDTFLCEVKRFPSDVNPDSAEFEVLEPASGEAFILLTLIKTGNLSTNWKEFLDTHGTLDVSTI” the “soluble on expression in E. coli” value was “soluble”.
In the case of “SLRQDELKELERAIAEITEIAEGFGLDFYPMRYEICPADILYTFGAYGMPTRFSHWSFGKQFYKMKLHYDLGLSKIYELVINSDPCYAFLLDTNTLIQNKLIVAHVLAHSDFFKNNVRFSNTKRDMVESMAATAERIKHYEHQYGKLEVEKFLDAVLAIQEHIDPSLLRPKLSWTWEDTEVYEEEEPPKTSTPYDDLWSLDERDKLKTPPRKKRRKFPPQPEKDVLLFIEEYSRELEDWQRDILTMMREEMLYFWPQLETKIMNEG”, the “soluble on expression in E. coli” value is reported as “not soluble”.
For “MSTQTVTIKSLGAQGDGIAHCPDGPVYVPFALPGETVAIAKVKDQGTVMSITEASADRRDPVCRHFGPEGINGTCGGCSLQHLADQPYHAFKRELVVSALRSKGLTPPVDDLVICRPGERRRAVFAARKTEKGLLLGFSQANSHHIVAIEECPVTSPGIVSRFDAIRAIGLSMVANAEPFRITVLETLSGLDISVEGIKSVNDKQRRTLTETVLAMRGIARVSLSGEILIEPQKPIIEFGGIPVSPPAGGFTQATKQAEDAMAELMLAHVGKSKRIADLFCGSGTFALRLARIGRVHAVEAEDKALKALDFAARNTQGLKPVSVEKRDLFRRPLMTSELKNYDAVVFDPPRAGAEVQCKELARSTVKKIVAVSCNPLTLARDLAILTEGGYRVTRVTPVDQFLWSPHVEAVAVLEK”, the “soluble on expression in E. coli” value was “not soluble”.
With “MGLMHPRQLLTLPNGDVLVVEANSPGTVPITSPKQMIASIVKDRSGKGGKGGNRITLLRKAAGQSGKWEKYVFIENLHSPFGVQLIGDTLYVANTGNIMKYRYTPGETRMSDPGVEFTDLPSTVNHHWTKALLASPDGKKLYVGVGSNSNVAENGLDIEYRRATVLEVDVQSAASRIYASGIRNPTGLGWEPTTGKLWAIVNERDEIGADLVPDYLTSVQEGGFYGWPYSYYGQYVDQRVQPQRPDLVARAIRPDYALGSHVAPLGLWFYQGRNLPEKYHGGAFIGQHGSWNRIPLSGYDVVFVRFKDGKPEGVPEPVVTGFTSADQKTLKGAPVGLAEDAEGALLIADDVGNTIWRVTARGLEHHHHHH” the “soluble on expression in E. coli” value was “not soluble”.
With “MLEAEVVALKDLIEVAGAVVSTLDLDTVLRHILTSAMRFAETPAGSIALYDGYRNDLTLHAHEGLTPEFVKTERWSVQPGGLTEQVLTRGEILFVNDTADTSFFHNPTALNEGIRSLICVPLMMQNRIVGILYLDDFVPRDFDKERMKLLSVLASFAAMAIDNAQLHARTR” the “soluble on expression in E. coli” value was “not soluble”.
For “MGSDKIHHHHHHMLDKIELFILDMDGTFYLDDSLLPGSLEFLETLKEKNKRFVFFTNNSSLGAQDYVRKLRNMGVDVPDDAVVTSGEITAEHMLKRFGRCRIFLLGTPQLKKVFEAYGHVIDEENPDFVVLGFDKTLTYERLKKACILLRKGKFYIATHPDINCPSKEGPVPDAGSIMAAIEASTGRKPDLIAGKPNPLVVDVISEKFGVPKERMAMVGDRLYTDVKLGKNAGIVSILVLTGETTPEDLERAETKPDFVFKNLGELAKAVQ”, the “soluble on expression in E. coli” value was “not soluble”.
With “TEQATTTDELAFTRPYGEQEKQILTAEAVEFLTELVTHFTPQRNKLLAARIQQQQDIDNGTLPDFISETASIRDADWKIRGIPADLEDRRVEITGPVERKMVINALNANVKVFMADFEDSLAPDWNKVIDGQINLRDAVNGTISYTNEAGKIYQLKPNPAVLICRVRGLHLPEKHVTWRGEAIPGSLFDFALYFFHNYQALLAKGSGPYFYLPKTQSWQEAAWWSEVFSYAEDRFNLPRGTIKATLLIETLPAVFQMDEILHALRDHIVGLNCGRWDYIFSYIKTLKNYPDRVLPDRQAVTMDKPFLNAYSRLLIKTCHKRGAFAMGGMAAFIPSKDEEHNNQVLNKVKADKSLEANNGHDGTWIAHPGLADTAMAVFNDILGSRKNQLEVMREQDAPITADQLLAPCDGERTEEGMRANIRVAVQYIEAWISGNGCVPIYGLMEDAATAEISRTSIWQWIHHQKTLSNGKPVTKALFRQMLGEEMKVIASELGEERFSQGRFDDAARLMEQITTSDELIDFLTLPGYRLLA” the “soluble on expression in E. coli” value was “soluble”.
In the case of “MSLSIADNLKQVLAELPQGVRLVAVSKFHPNEAIEEAYQAGQRIFGESKVQEMTAKYETLPKDIEWHFIGHLQTNKIKYMIPYVEMIHGIDTYKLLAEVNKQAAKAGRIVNCLIQIHVAQEETKFGFSPEECKDMLHAGEWKELSHIRICGLMGMASNTDDVEQINREFCLLNRLFQEIKANWFADSDTFRELSMGMSHDYHEAIAAGSTLVRVGSKIFGERNYNTEGHHHHHH”, the “soluble on expression in E. coli” value is reported as “soluble”.
In the case of “SNAMTDAVLELPAATFDLPLSLSGGTQTTLRAHAGHWLVIYFYPKDSTPGATTEGLDFNALLPEFDKAGAKILGVSRDSVKSHDNFCAKQGFAFPLVSDGDEALCRAFDVIKEKNMYGKQVLGIERSTFLLSPEGQVVQAWRKVKVAGHADAVLAALKAHAKQ”, the “soluble on expression in E. coli” value is reported as “soluble”.
With “MGSDKIHHHHHHMALKGKGQAKSPNVDDNPQLGLESEIPVAPRSKRQTRQAEEVQAKDPYLDSVKELDDVLLKFKKYSKSMSSIENKVFSSSGGCFKSKNERVNAYSFTCSSFADKIEEYSYDPANSFPYKRGVKLVLKESSIYVEVGADTDMYGICVDVCEFSSTAYVLPITNNFEGYLVTRNPSIKMGEILDINNNGVIIKAGGGPPTVINAYALSDSFTINFAPEDEHQDQARYPKQEYSINLIKVAIFGNRGLEKTVTPEAGG” the “soluble on expression in E. coli” value was “not soluble”.
For “MSVTMSEAFDYSMIDNILSEHGTSETAIIAILQSIQEEYHYIPKEVFPYLSKKLKVSEARIFSVATFYENFSLEPKGKYIIKVCDGTACHVRKSIPIIERLRKELGLSGTKPTTDDLMFTVETVSCLGACGLAPVITVNDKVYAEMTPDKASELIKQLREGDADA”, the “soluble on expression in E. coli” value was “not soluble”.
With “MREEVKTVIKVKTVGDVPAIVSARKSITEGKVKDAIISGYRDVKNDYMRYFGIQQAPDEGERLFIVNTLKGLGIDLPEESIVDGKFIIDRISGMDLASTDPKVACFVKIAEFYLKYYEKAKYSDSVIEDDGEIIERLTGIYNYMDITKLYFKGDDAGVGT” the “soluble on expression in E. coli” value was “not soluble”.
For “MTSISSEYKLPEKTNTVSTNNSSLGKDEFLKILMTQVQNQDPLNPIDDKEFISQMATFSSLEQMMNLNTTMTQFVENQDPFTTYVDWMGKEVSWTDGKSATDKTGTVSSVKHFKGNYYLVLDDGTEISPANVMSVGQSSKLEHHHHHH”, the “soluble on expression in E. coli” value was “soluble”.
For “MGNGMTKVLPGLYLGNFIDAKDLDQLGRNKITHIISIHESPQPLLQDITYLRIPVADTPEVPIKKHFKECINFIHCCRLNGGNCLVHCFAGISRSTTIVTAYVMTVTGLGWRDVLEAIKATRPIANPNPGFRQQLEEFGWASSQKLRRQLEERFGESPFRDEEELRALLPLCKRCRQGSATSASSAGPHSAASEGTVQRLVPRTPREAHRPLPLLARVKQTFSCLPRCLSRKGGK”, the “soluble on expression in E. coli” value was “soluble”.
For “MTDVKNDVNVSSVVDADGLIEGNYDQVVESFDDMELKEELLRGIYGFGFEKPSAIQKRAIVPCTTGKDVIAQAQSGTGKTATFSVSILQRIDHEDPHVQALVMAPTRELAQQIQKVMSALGEYLNVNILPCIGGTSVRDDQRKLEAGIHVVVGTPGRVGDMINRNALDTSRIKMFVLDEADEMLSRGFKDQIYEVFRSMPQDVQVVLLSATMPSEVLDVTNRFMRNPIRILVKKDELTLEGIRQFYINVQKDEWKFDCLCDLYNVVNVTQAVIFCNTRRKVDTLTEKMTENQFTVSCLHGDMDQAERDTIMREFRSGSSRVLITTDILARGIDVQQVSLVINYDLPSNRENYIHRIGRSGRFGRKGVAINFVTENDARQLKEIESYYTTQIEEMPESIADLI”, the “soluble on expression in E. coli” value was “not soluble”.
With “MTAANLTEQQRLELEAAAFRTLVHHLQTRKDVQNIDLMNLAGFCRNCLSKWYKAAADDLGVEVSNDQAREEIYGMPYAEWKAKYQKEASPEQQAAFAKSQGNA” the “soluble on expression in E. coli” value was “not soluble”.
